These results are taken from patent US20190086422A1.

The target in assay [1] is Tau protein from human CSF (human) (UniProt P10636). Kind of assay: IP from human CSF, trypsin digest, MS; Tau peptide 354-369 (SEQ ID NO 84) quantified.
The target is the same in assay [2]. Kind of assay: IP from human CSF, trypsin digest, MS; Tau peptide 175-180 (SEQ ID NO 75) quantified.
The target is the same in assay [3]. Kind of assay: IP from human CSF, trypsin digest, MS; Tau peptide 6-23 (SEQ ID NO 69) quantified.
Assay [4] shares this target. Kind of assay: IP from human CSF, trypsin digest, MS; Tau peptide 181-190 (SEQ ID NO 76) quantified.
Assay [5] has the same target. Kind of assay: IP from human CSF, trypsin digest, MS; Tau peptide 275-280 (SEQ ID NO 81) quantified.
The target is the same in assay [6]. Briefly: IP from human CSF, trypsin digest, MS; Tau peptide 24-44 (SEQ ID NO 70) quantified.
Assay [7] shares this target. Briefly: IP from human CSF, trypsin digest, MS; Tau peptide 88-126 (SEQ ID NO 73) quantified.
The target is the same in assay [8]. Kind of assay: IP from human CSF, trypsin digest, MS; Tau peptide 212-224 (SEQ ID NO 79) quantified.
For assay [9] the target is unchanged. Briefly: IP from human CSF, trypsin digest, MS; Tau peptide 212-221 (SEQ ID NO 78) quantified.
For assay [10] the target is unchanged. Briefly: IP from human CSF, trypsin digest, MS; Tau peptide 68-87 (SEQ ID NO 72) quantified.
Assay [11] shares this target. Briefly: IP from human CSF, trypsin digest, MS; Tau peptide 386-395 (SEQ ID NO 85) quantified.
Assay [12] shares this target. Briefly: IP from human CSF, trypsin digest, MS; Tau peptide 195-209 (SEQ ID NO 77) quantified.
Assay [13] shares this target. Kind of assay: IP from human CSF, trypsin digest, MS; Tau peptide 396-406 (SEQ ID NO 86) quantified.
Assay [14] shares this target. Kind of assay: IP from human CSF, trypsin digest, MS; Tau peptide 299-316 as printed (SEQ ID NO 83) quantified.
The target is the same in assay [15]. Kind of assay: IP from human CSF, trypsin digest, MS; Tau peptide 45-67 (SEQ ID NO 71) quantified.
Assay [16] shares this target. Briefly: IP from human CSF, trypsin digest, MS; Tau peptide 282-290 (SEQ ID NO 82) quantified.
The target is the same in assay [17]. Briefly: IP from human CSF, trypsin digest, MS; Tau peptide 151-155 (SEQ ID NO 74) quantified.
For assay [18] the target is unchanged. Briefly: IP from human CSF, trypsin digest, MS; Tau peptide 260-267 (SEQ ID NO 80) quantified.

Sequence of UniProt P10636 (P10636 other isoform, or with tags, fused parts or gaps limits assumed): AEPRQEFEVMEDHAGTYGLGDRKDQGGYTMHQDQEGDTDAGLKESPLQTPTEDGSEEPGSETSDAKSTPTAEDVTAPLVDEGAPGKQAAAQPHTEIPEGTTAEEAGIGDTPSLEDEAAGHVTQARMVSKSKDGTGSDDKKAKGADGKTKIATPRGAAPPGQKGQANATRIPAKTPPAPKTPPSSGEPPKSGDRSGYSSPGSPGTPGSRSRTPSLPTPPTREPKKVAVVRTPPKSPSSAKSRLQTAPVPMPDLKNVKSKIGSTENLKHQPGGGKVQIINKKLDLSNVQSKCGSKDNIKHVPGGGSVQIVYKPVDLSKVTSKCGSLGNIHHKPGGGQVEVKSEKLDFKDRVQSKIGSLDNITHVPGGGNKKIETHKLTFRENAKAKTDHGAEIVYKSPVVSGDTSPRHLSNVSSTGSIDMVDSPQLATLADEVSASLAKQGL

On to Tau12 (antibody), for which the Peptide Intensity (fraction of the highest abundance among the three IP antibodies) in assay [1] was determined as 0.86; in assay [2], 0.99; in assay [3], 1; in assay [4], 0.46; in assay [5], 0.31; in [6], 0.15. Moreover, the Peptide Intensity (fraction of the highest abundance among the three IP antibodies) in [7] was 0.59; in [8], 1; in assay [9] it was 1; in assay [10], 0.47; in assay [11] it was 0.68; in [12], 1. The Peptide Intensity (fraction of the highest abundance among the three IP antibodies) in assay [13] stood at 0.42; in assay [14], 0.82; in [15] it was 0.92; in assay [16], 1; in [17], 0.87; in [18], 0.86.

Regarding HJ8.7 (antibody), the Peptide Intensity (fraction of the highest abundance among the three IP antibodies) in assay [1] is 1; in assay [2], 1; in [3] it was 0.68; in [4] it was 1; in [5] it was 1; in assay [6], 0.84. The Peptide Intensity (fraction of the highest abundance among the three IP antibodies) in assay [7] stood at 1; in [8], 0.94; in assay [9] it was 0.86; in assay [10] it was 1; in assay [11] it was 1; in assay [12], 0.8. For the same substance, the Peptide Intensity (fraction of the highest abundance among the three IP antibodies) was 0.39 in [13]; 1 in assay [14]; 1 in [15]; 0.04 in [16]; 1 in assay [17]; 1 in [18].
